Laboratory results published in patent US20170355750A1 (ACADEMIA SINICA, published 2017).

Tests used:
[1] = molecular target: T1, HER2 on the surface of N87 cells (human, UniProt P04626); experiment: flow cytometry on N87 cells; scFv detected with AL2-RFP (1:1 scFv:AL fragment); MFI adjusted over cells with AL2-RFP without scFv
T1 construct: full-length receptor on the cell surface

[2] = molecular target: T2, HER2 on the surface of BT474 cells (human, UniProt P04626); experiment: flow cytometry on BT474 cells; scFv detected with AL2-RFP (1:1 scFv:AL fragment); MFI adjusted over cells with AL2-RFP without scFv
T2 construct: full-length receptor on the cell surface

B1: H32 scFv (scFv)
scFv: DIQMTQSPSSLSASVGDRVTITCKASQNVGTAVAWYQQKPGKAPKLLIYSASNRYTGVPSRFSGSGSGTDFTLTISSLQPEDFATYYCQQYSSYPLAFGQGTKVEIKRGGGGSIEGRSGGGGSEVQLVESGGGLVQPGGSLRLSCKASGFNIKDYFMYWVRQAPGKGLEWVGWIDPENGNTIYDPKFQGRFTISADTSKNTAYLQMNSLRAEDTAVYYCTRGYYGSRVLAMDYWGQGTLVTVSSASAAA
notes: also called scFv(H32)
B1: binds [1]; binds [2].

B2: GH2-61 scFv (scFv)
scFv: DIQMTQSPSSLSASVGDRVTITCRASQDVGSNVAWYQQKPGKAPKLLISWSTSLYSGVPSRFSGSGSGTDFTLTISSLQPEDFATYYCQQYGGWPITFGQGTKVEIKRGGGGSIEGRSGGGGSEVQLVESGGGLVQPGGSLRLSCAASGFTINNWGIHWVRQAPGKGLEWVAGIWPYGGYTYYADSVKGRFTISADTSKNTAYLQMNSLRAEDTAVYYCARFYNHHGGVMDYWGQGTLVTVSSASAAA
B2: binds [1]; binds [2].

B3: GH2-50 scFv (scFv)
scFv: DIQMTQSPSSLSASVGDRVTITCRASQDVFYGVAWYQQKPGKAPKLLIFWTTYLYSGVPSRFSGSGSGTDFTLTISSLQPEDFATYYCQQYFNWPLTFGQGTKVEIKRGGSSRSSSSGGGGSGGGGEVQLVESGGGLVQPGGSLRLSCAASGFTINNDGIHWVRQAPGKGLEWVAAIGPFWGSTDYADSVKGRFTISADTSTNTAYLHMNSLRAEDTALYYCARFGNYYDGVMDYWGQGTLVTVSSASAAA
B3: binds [1]; binds [2].

B4: GH2-20 scFv (scFv)
scFv: DIQMTQSPSSLSASVGDRVTITCRASQDVNNNVAWYQQKPGKAPKLLIYWTTYLYSGVPSRFSGSGSGTDFTLTISSLQPEDFATYYCQQGSNWPITFGQGTKVEIKRGGSSRSSSSGGGGSGGGGEVQLVESGGGLVQPGGSLRLSCAASGLTINDYGIHWVRQAPGKGLEWVASIGPSGGFTSYADSVKGRFTISADTSKNTAYLQMNSLRAEDTAVYYCARFVIYWGFFMDYWGQGTLVTVSSASAAA
B4: binds [1]; binds [2].

B5: GH2-41 scFv (scFv)
scFv: DIQMTQSPSSLSASVGDRVTITCRASQDVSNSVAWYQQKPGKAPKLLISGAAWLYSGVPSRFSGSGSGTDFTLTISSLQPEDFATYYCQQSGNFPLTFGQGTKVEIKRGGSSRSSSSGGGGSGGGGEVQLVESGGGLVQPGGSLRLSCAASGFTISNWGIHWVRQAPGKGLEWVASIGPSGGFTSYADSVKGRFTISADTSKNTAYLQMNSLRAEDTAVYYCARFYIYGGVIMDYWGQGTLVTVSSASAAA
B5: binds [1]; binds [2].
